This note sets out measurements from patent US20200325237A1 (AVIDITY BIOSCIENCES, published 2020).

Changes are numbered by the printed parent chain.

T1: TfR2 (transferrin receptor 2) (UniProt Q9UP52 105-801, limits assumed)
T1 sequence (looked up): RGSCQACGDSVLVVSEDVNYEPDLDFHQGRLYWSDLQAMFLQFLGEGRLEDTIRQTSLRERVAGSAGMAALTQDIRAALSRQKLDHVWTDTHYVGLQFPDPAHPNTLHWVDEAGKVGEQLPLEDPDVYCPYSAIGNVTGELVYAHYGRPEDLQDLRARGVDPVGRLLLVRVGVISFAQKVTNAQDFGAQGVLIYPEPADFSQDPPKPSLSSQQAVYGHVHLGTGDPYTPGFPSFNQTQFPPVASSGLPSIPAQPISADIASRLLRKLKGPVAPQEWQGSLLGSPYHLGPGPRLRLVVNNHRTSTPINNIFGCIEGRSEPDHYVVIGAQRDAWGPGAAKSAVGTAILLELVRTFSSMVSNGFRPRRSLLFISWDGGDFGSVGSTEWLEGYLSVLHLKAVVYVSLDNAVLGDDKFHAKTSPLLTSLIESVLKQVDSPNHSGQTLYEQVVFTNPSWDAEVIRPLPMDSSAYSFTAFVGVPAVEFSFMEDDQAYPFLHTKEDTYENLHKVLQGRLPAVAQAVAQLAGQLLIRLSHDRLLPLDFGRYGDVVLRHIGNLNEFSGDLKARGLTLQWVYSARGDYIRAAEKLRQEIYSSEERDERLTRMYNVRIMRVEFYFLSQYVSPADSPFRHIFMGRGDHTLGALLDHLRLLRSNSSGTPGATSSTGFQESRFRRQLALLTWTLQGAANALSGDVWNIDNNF

B1: 13E4-Variant 2i (antibody, human IgG1, kappa, L234A L235A)
heavy: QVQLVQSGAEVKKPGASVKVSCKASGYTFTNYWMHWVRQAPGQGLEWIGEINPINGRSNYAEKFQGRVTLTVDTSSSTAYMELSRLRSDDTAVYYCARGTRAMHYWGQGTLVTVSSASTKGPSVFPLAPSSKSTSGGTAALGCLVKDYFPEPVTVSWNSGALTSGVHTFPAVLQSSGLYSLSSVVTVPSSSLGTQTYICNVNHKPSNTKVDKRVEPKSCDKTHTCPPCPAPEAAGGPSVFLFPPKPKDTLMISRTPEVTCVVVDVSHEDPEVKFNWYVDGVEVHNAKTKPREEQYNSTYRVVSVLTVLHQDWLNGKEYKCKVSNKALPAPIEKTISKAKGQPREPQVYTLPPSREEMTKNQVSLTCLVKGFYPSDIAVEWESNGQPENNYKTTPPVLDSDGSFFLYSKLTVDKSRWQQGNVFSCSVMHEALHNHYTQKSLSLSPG
light: DIQMTQSPSSLSASVGDRVTITCRTSENIYNNLAWYQQKPGKSPKLLIYAATNLADGVPSRFSGSGSGTDYTLTISSLQPEDFATYYCQHFWGTPLTFGGGTKVEIKRTVAAPSVFIFPPSDEQLKSGTASVVCLLNNFYPREAKVQWKVDNALQSGNSQESVTEQDSKDSTYSLSSTLTLSKADYEKHKVYACEVTHQGLSSPVTKSFNRGEC
notes: Humanized hIgG1 with Fc mutations; also called hIgG1 TfR-Var2i
B2: 13E4-Variant 2iii (antibody, human IgG1, kappa, L234A L235A)
heavy: QVQLVQSGAEVKKPGASVKVSCKASGYTFTNYWMHWVRQAPGQGLEWIGEINPINGRSNYAEKFQGRVTLTVDTSSSTAYMELSRLRSDDTAVYYCARGTRAMHYWGQGTLVTVSSASTKGPSVFPLAPSSKSTSGGTAALGCLVKDYFPEPVTVSWNSGALTSGVHTFPAVLQSSGLYSLSSVVTVPSSSLGTQTYICNVNHKPSNTKVDKRVEPKSCDKTHTCPPCPAPEAAGGPSVFLFPPKPKDTLMISRTPEVTCVVVDVSHEDPEVKFNWYVDGVEVHNAKTKPREEQYNSTYRVVSVLTVLHQDWLNGKEYKCKVSNKARPAPIEKTISKAKGQPREPQVYTLPPSREEMTKNQVSLTCLVKGFYPSDIAVEWESNGQPENNYKTTPPVLDSDGSFFLYSKLTVDKSRWQQGNVFSCSVMHEALHNHYTQKSLSLSPG
light: B1 light
notes: Humanized hIgG1 with Fc mutations; also called hIgG1 TfR-Var2iii
B3: 13E4-Variant 9i (antibody, human IgG1, kappa, L234A L235A)
heavy: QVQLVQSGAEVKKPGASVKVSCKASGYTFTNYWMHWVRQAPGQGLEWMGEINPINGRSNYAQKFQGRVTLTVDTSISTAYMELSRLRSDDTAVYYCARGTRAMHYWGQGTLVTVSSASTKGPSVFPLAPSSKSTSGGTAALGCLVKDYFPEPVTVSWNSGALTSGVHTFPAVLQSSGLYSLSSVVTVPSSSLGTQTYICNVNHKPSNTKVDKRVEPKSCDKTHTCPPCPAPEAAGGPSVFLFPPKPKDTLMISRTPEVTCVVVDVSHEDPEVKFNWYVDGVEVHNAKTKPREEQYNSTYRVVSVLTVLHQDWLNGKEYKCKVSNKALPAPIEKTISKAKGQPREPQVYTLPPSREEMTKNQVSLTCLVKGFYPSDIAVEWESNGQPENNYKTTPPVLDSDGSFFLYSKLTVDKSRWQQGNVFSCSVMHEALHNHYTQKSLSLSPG
light: B1 light with S43A, D56E
notes: Humanized hIgG1 with Fc mutations; also called hIgG1 TfR-Var9i
B4: 13E4-Variant 2ii (antibody, human IgG1, kappa, L234A L235A)
heavy: B2 heavy with K321G, R327L
light: B1 light
notes: Humanized hIgG1 with Fc mutations; also called hIgG1 TfR-Var2ii

T3 sequence (chain, as listed by the source C07H C07H): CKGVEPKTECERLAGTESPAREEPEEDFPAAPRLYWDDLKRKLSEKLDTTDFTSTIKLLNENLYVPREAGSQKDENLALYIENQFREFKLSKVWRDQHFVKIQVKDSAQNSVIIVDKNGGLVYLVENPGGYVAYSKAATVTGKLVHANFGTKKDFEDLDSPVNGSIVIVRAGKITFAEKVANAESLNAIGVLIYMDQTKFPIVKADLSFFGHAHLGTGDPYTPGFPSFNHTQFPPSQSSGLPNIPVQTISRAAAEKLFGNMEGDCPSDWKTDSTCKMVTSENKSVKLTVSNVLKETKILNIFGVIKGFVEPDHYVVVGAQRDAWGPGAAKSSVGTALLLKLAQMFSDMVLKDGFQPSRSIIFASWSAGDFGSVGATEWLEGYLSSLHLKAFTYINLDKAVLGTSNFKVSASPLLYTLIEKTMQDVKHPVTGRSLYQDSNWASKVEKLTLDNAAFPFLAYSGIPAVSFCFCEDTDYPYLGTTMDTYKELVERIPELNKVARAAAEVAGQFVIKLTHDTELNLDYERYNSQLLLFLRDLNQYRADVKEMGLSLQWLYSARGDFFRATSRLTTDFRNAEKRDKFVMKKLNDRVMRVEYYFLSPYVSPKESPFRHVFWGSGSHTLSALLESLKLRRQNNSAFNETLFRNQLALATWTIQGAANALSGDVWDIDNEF
T2 sequence (P02786 89-760 limits assumed): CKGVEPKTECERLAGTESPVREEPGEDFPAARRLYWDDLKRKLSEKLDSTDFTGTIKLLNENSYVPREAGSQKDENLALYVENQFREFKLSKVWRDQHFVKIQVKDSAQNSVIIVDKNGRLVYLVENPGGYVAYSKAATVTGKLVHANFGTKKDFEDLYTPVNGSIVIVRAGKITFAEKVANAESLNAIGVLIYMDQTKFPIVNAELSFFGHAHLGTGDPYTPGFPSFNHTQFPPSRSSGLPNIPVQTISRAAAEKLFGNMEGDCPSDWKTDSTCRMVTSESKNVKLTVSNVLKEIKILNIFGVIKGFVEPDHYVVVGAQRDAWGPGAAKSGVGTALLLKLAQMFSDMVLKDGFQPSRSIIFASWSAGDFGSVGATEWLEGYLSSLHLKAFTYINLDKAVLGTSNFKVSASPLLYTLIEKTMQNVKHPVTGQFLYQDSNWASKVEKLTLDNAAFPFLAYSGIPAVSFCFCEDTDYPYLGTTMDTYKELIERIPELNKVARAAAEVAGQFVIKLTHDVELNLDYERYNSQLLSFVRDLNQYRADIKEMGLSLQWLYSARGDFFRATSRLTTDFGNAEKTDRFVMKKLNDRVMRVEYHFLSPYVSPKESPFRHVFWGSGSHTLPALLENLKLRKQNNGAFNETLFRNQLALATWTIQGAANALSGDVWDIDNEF

In one test the target is T1, TfR2 (transferrin receptor 2). Kind of test: A450 plate assay on TfR2 (method not described in the text).
As for B1, the binding result is “no binding (tested: 1000 nM)”.
Turning to B2, the binding result is on record as “no binding (tested: 1000 nM)”.
Still for that read-out and setting: in the case of B3 it was “no binding (tested: 1000 nM)”.
In the case of B4, the binding result is “no binding (tested: 1000 nM)”.

In a further test the target is T2, hTfR (human transferrin receptor, source and construct not stated) (human, UniProt P02786 89-760, limits assumed). Nature of the test: SPR (BioRad ProteOn XPR36), mAb captured on Protein A, hTfR as analyte, 25 C. On the procedure:
The binding kinetics of nine exemplary humanized anti-TfR antibodies and the parent chimeric antibody were characterized. Studies were run on a BioRad ProteOn XPR36 optical biosensor using a GLM sensor chip coated with Protein A for mAb capture. Running buffer included 10 mM EPES, 150 mM NaCl, pH 7.4 with 0.05 tween-20 with 0.2 mg/ml BSA. Data were collected at 25 degrees C. All mAbs were diluted into running buffer to 2 ug/ml based on the stock concentration provided. Each was then captured for 40 seconds over a Protein A surface.
hTfR (100 ug) was dissolved into […] of water to yield a 4.3 uM stock concentration. hTfR was dilted to 43 nM as the highest concentration and tested in a 3 fold dilution series. hTfR was injected at 200 ul/min for 2 minutes followed by a one-hour dissociation phase.
As a reminder, the Kd is the constant that tells how readily two partners part at equilibrium. Broadly, the koff is the rate constant with which the complex falls apart. A higher koff goes with a short-lived complex. Usually kon stands for a measure of how fast the partners come together. A high value points to fast association. In turn, B1 gave a Kd of 0.00043 nM, an off-rate constant (koff) of 3.9e-07 s⁻¹ and an association rate constant (kon) of 913000 M⁻¹ s⁻¹.
As for B2, binding was characterised by a dissociation constant (Kd) of 0.00095 nM, the koff worked out at 8.2e-07 s⁻¹ and the kon came out at 862000 M⁻¹ s⁻¹.
The matching figures for B3: 0.00121 nM, 1.02e-06 s⁻¹ and 843000 M⁻¹ s⁻¹.
For the molecule B4, the affinity, expressed as Kd, was 0.00049 nM; the off-rate constant (koff) amounted to 4.3e-07 s⁻¹; the association rate constant (kon) stood at 880000 M⁻¹ s⁻¹.

The target in the next test is T2, hTfR (human transferrin receptor, …). Nature of the test: ELISA; ratio of the Kd on HFE-captured hTfR to the Kd on directly coated hTfR. In general terms: An ELISA detects its analyte on a solid surface through an enzyme-linked reagent.
Take B1: the “Kd(HFE+TfR)/Kd(TfR)” value stood at 11.1.
Regarding B2, the “Kd(HFE+TfR)/Kd(TfR)” value worked out at 11.9.
The same measure, in the same setting: in the case of B3 it was 13.6; in that of B4, 9.9.

A further test shares this target. Nature of the test: ELISA; ratio of the Kd on transferrin-captured hTfR to the Kd on directly coated hTfR. The protocol: (§1) Antibodies were biotinylated using 50 fold molar excess of EZ-Link No weigh NHS-Biotin (Thermo Scientific A39256) following manufacturer's instructions. Half-well high-bind plates (Costar #3690) were coated with 500 ng/mL purified human holo-transferrin (R&D Systems 2914-HT) in PBS at 4° C. overnight. For comparison, plates were coated directly with hTfR. Plates were washed four times with 100 μL of Tris buffered saline+Tween (20×TBST, Cell Signaling 9997S). 100 μL of Superblock (ThermoFisher PI-37535) was added to each well and incubated for 1 hour at room temperature. The wash step was repeated before the addition of the hTfR (200 ng/mL in 25 μl) to the transferrin plates, or Superblock to the hTfR plates, and incubated for 30 minutes. Biotinylated antibodies were diluted to 20 nM for the high concentration and added to the plates with 3-fold serial dilution. 25 μl/well was added to the 25 μl already in the plate. Plates were incubated for 1 hour, and wash step was repeated. Streptavidin-HRP (R&D Systems DY998) was added following recommended dilution on the package insert, and a final wash step was done. Binding was measured by the addition of 50 μL of 1-Step™ Ultra TMB-ELISA (ThermoFisher, 34028), incubated for 5 minutes, and the reaction was stopped with the addition of 25 μL of Stop Solution 2N sulfuric Acid (R&D Systems DY994). Absorbance was measured at 450 nm, with reference wavelength 570 nm subtracted. Binding constants were determined using GraphPad Prism Specific Binding with Hill Slope. Change in antibody binding constants in the presence versus absense of transferrin is considered relative to the commercially available antibody which is known to have an overlapping epitope with transferrin (AF2474, R&D Systems).
With B1, the “Kd(Tf+TfR)/Kd(TfR)” value was found to be 2.8.
Still for that read-out and setting: in the case of B2 it was 2.1; in that of B3, 2.2.
The same measure, in the same setting: with B4 the figure was 2.5.

A further test concerns the target T3, recombinant cyno transferrin receptor protein (Sino Biological 90253-C07H) (cyno, UniProt H9EXL1 89-760 (rhesus entry)).
T3 construct: Bought protein coated on ELISA plates; also called recombinant cyno TfR1; cynoTfR1
Kind of test: ELISA on plate-coated recombinant cyno TfR1 (CD71); fit: specific binding with Hill slope. The protocol: (§2) Half-well high-binding 96-well plates (Costar #3690) were coated with recombinant human transferrin receptor protein (Sino Biological 11020-H07H) or recombinant cyno transferrin receptor protein (Sino Biological 90253-C07H) at 1 ng/μL in PBS (Gibco 14190) and incubated overnight at 4° C. Plates were washed four times with 100 μL of Tris buffered saline+Tween (20×TBST, Cell Signaling 9997S). 100 μL of Superblock (ThermoFisher PI-37535) was added to each well and incubated for 1 hour at room temperature. The wash step was repeated before the addition of the samples. Samples were added at concentrations up to 10 nM, 50 μL/well. Plates were incubated for another hour at room temp and wash step repeated. Secondary antibody (Peroxidase AffiniPure Goat Anti-Human IgG, Fcγ Fragment Specific, Jackson Immunoresearch, 109-035-098) was diluted 1:5000 in Superblock and 50 μL/well added. Plates were incubated for 1 hour at room temperature and washed one more time. Binding was measured by the addition of 50 μL of 1-Step™ Ultra TMB-ELISA (ThermoFisher, 34028), incubated for 5 minutes, and the reaction was stopped with the addition of 25 μL of Stop Solution 2N sulfuric Acid (R&D Systems DY994). Absorbance was measured at 450 nm, with reference wavelength 570 nm subtracted. Binding constants were determined using GraphPad Prism Specific Binding with Hill Slope.
As to B1, the Bmax turned out to be 93.1 % max binding, the equilibrium dissociation constant (Kd) was 0.012 nM and the h stood at 1.56.
With B2, the Bmax amounted to 94.3 % max binding, the Kd was 0.0092 nM and the h is 1.35.
Take B3: the Bmax was 95 % max binding, the Kd turned out to be 0.011 nM and the h is 1.51.
Regarding B4, the Bmax is 94.2 % max binding, the dissociation constant (Kd) stood at 0.0127 nM and the h was found to be 1.58.

The next test deals with T4, recombinant human transferrin receptor protein (Sino Biological 11020-H07H) (human, UniProt P02786 89-760).
T4 construct: Bought protein coated on ELISA plates; also called recombinant human TfR1; human TfR1
T4 sequence (P02786 89-760 limits assumed): as above
Kind of test: ELISA on plate-coated recombinant human TfR1 (CD71); fit: specific binding with Hill slope. The protocol: as §2
Take B1: the Bmax came to 94.2 % max binding, the Kd worked out at 0.00817 nM and the h was 1.35.
The matching figures for B2: 95 % max binding, 0.00958 nM and 1.2.
B3: the Bmax turned out to be 95.7 % max binding, the equilibrium dissociation constant (Kd) is 0.00973 nM and the h came to 1.22.
The matching figures for B4: 92.9 % max binding, 0.00964 nM and 1.43.

The target in the next test is T2, hTfR (human transferrin receptor, …). Nature of the test: ELISA, biotinylated antibody on hTfR captured by plate-coated HFE (HFE+TfR); fit: specific binding with Hill slope.
Take B1: the Bmax turned out to be 3 A450, binding was put at a Kd of 0.273 nM and the h turned out to be 1.63.
In the same order, the values of B2 are 2.66 A450, 0.289 nM and 1.26.
As for B3, the Bmax turned out to be 2.79 A450, binding was put at a Kd of 0.341 nM and the h stood at 1.37.
For B4, the Bmax came out at 3.15 A450; the affinity, expressed as Kd, was 0.227 nM; the h came to 1.64.

The target is the same in another test. Nature of the test: ELISA, biotinylated antibody on hTfR captured by plate-coated human holo-transferrin (Tf+TfR); fit: specific binding with Hill slope. On the procedure: as §1
Take B1: the Bmax was determined as 3.48 A450, the Kd was found to be 0.0678 nM and the h was 1.49.
In the case of B2, the Bmax was 3.47 A450, the Kd came to 0.0522 nM and the h is 1.61.
The matching figures for B3: 3.53 A450, 0.0559 nM and 1.45.
B4 showed a Bmax of 3.53 A450, a dissociation constant (Kd) of 0.0578 nM and a h of 1.45.
